Source: US20250154240A1, “ANTI-HUMAN CXCL1 ANTIBODY” (CHIOME BIOSCIENCE INC., priority 2022, published 2025)

Legend:
HuCXCL3 = biological target: T1, HuCXCL3 (Homo sapiens, UniProt P19876); assay: ELISA, inhibition of binding of HuCXCL3 to GAG (heparin, heparan sulfate); format: biochemical; conditions: antibody 0 to 10 μg/mL; biotin-labeled heparin or heparan sulfate 10 μg/mL
T1 construct: purchased PROTEINTECH
T1 sequence (P19876 35-107): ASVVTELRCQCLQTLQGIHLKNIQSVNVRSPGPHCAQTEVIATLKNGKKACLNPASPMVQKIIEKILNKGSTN
Method: (§1) Thus, the effect of Hu5A-5E11 on the binding of CXCLs to GAG was evaluated by ELISA assay using plates on which the antigen (HuCXCL1 protein) used for immunization or HuCXCL2, 3 and 5 and MsCXCL1 and 2 proteins had been directly immobilized. CXCLs other than HuCXCL1 were purchased from PROTEINTECH and used. Biotin-labeled heparan sulfate and heparin were purchased from PG Research and used.
(§2) To 96-well plates, phosphate-buffered saline (PBS) containing 3 μg/mL of HuCXCL1, 2, 3 or 5 or MsCXCL1 or 10 μg/mL of MsCXCL2 was added in a volume of 50 μL per well, and the plates were allowed to stand overnight at 4° C. After removal of the antigen solutions, PBS containing 0.05% Tween-20 (hereinafter referred to as the blocking solution) was added to each well for blocking reaction, and the plates were allowed to stand at room temperature for 30 minutes. […] TMB (Dako) was added as a chromogenic substrate solution to cause color development, and 1 N sulfuric acid was added to stop the reaction, followed by measurement of absorbance at 450 nm. The binding rate of CXCLs to GAG was calculated as a ratio relative to the absorbance measured in the absence of the antibody, which was set to 100%.

CXCR2-expressing cells = assay: In vivo CXCR2-expressing cell migration inhibitory activity, treatment model with OCUM-12 orthotopic transplantation; design: species or system mouse
Text: The stomachs after measurement were excised and fixed overnight at room temperature with a 10% neutral buffered formalin solution (Wako Pure Chemical Industries, Ltd., Japan), followed by replacement with PBS. Then, paraffin embedding and section preparation were outsourced to Applied Medical Research Laboratory, Japan. The prepared gastric tumor sections were immunohistologically stained with an anti-CXCR2 antibody to evaluate in vivo CXCR2 cell migration inhibitory activity. The sections were deparaffinized and rehydrated, and then treated to inactivate endogenous peroxidase. After antigen activation treatment, the sections were blocked with PBS containing 2% skimmed milk and 0.1% Tween-20 (hereinafter referred to as the blocking solution), and reacted overnight at 4° C. with an anti-CXCR2 antibody (Biorbyt) as a primary antibody, which had been diluted 1667-fold with the blocking solution. After washing with PBS containing 0.1% Tween-20, the sections were reacted at room temperature for 1 hour with an HRP-labeled goat anti-rabbit IgG antibody (Abcam) as a secondary antibody. […]
(§3) The dose-response relationship between antibody dose and in vivo antitumor activity or CXCR2 migration inhibitory activity was evaluated in a xenograft treatment model with OCUM-12 orthotopic transplantation. […] After 4 weeks had passed from the transplantation, the mice were sacrificed and evaluated.

[1] = system: OCUM-12 gastric cancer cell line; assay: Antitumor activity, treatment model with OCUM-12 orthotopic transplantation; format: in vivo, mouse; conditions: compared to PBS
Method: OCUM-12 cells were cultured in D-MED medium (FUJIFILM Wako Pure Chemical Corporation, Japan) supplemented with 10% fetal bovine serum (hereinafter abbreviated as FBS; Sigma-Aldrich Corporation) and 1/100 volumes of a penicillin-streptomycin mixture (Nacalai Tesque, Inc., Japan). The cells to be transplanted were detached with 0.25% trypsin/0.02% EDTA (Thermo Fisher Scientific) and washed with PBS, and 4×10^5 cells per mouse were transplanted into the gastric wall of each mouse. On the day following the transplantation, the mice were randomized into groups (8 mice per group) and intraperitoneally administered with test antibodies at a dose of 400 μg/head. […] After 3 weeks had passed from the transplantation, the mice were sacrificed, and the short- and long-axis diameters of tumors formed in their gastric walls were each measured with a caliper. The tumor size was calculated according to the following: 1/2 short-axis diameter (mm)×1/2 long-axis diameter (mm)×3.14. […]
as §3

MsCXCL1 = biological target: T2, MsCXCL1 (Mus musculus, UniProt P12850); assay: ELISA, inhibition of binding of MsCXCL1 to GAG (heparin, heparan sulfate); format: biochemical; design: purchased PROTEINTECH; conditions: antibody 0 to 10 μg/mL; biotin-labeled heparin or heparan sulfate 10 μg/mL
T2 sequence (P12850 25-96): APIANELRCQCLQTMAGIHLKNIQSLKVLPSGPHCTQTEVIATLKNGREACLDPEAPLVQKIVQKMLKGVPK
Method: as §1, §2

B1: Hu5A-5E11: humanized antibody VH1/VL1; VH SEQ ID NO: 76, VL SEQ ID NO: 78 (antibody, V domains shown)
VH: QVQLVQSGAEVKKPGSSVKVSCKASGYAFSDYWMNWVRQAPGQGLEWIGQIYPGSGDTNYNAKFKGKGTITADKSTSTAYMELSSLRSEDTAVYYCARERDYDVAMDYWGQGTTVTVSS
VL: DIQMTQSPSSLSASVGDRVTITCKASQDINKYIAWFQQKPGKAPKLVIHYTSILQPGVPSRFSGSGSGTDYTFTISSLQPEDIATYYCLQYDNLPWTFGGGTKVEIK
HuCXCL3
  Inhibitory activity against the binding of HuCXCL3 to GAG: inhibit the binding of HuCXCL1, 2, 3 and 5 and MsCXCL1 to GAG in an antibody concentration-dependent manner
CXCR2-expressing cells
  Dose at which the migration suppressive effect tended to reach a plateau: ≥ 60 μg/head
[1]
  Dose significantly suppressing the tumor area: ≥ 60 μg/head
MsCXCL1
  Inhibitory activity against the binding of MsCXCL1 to GAG: inhibit the binding of HuCXCL1, 2, 3 and 5 and MsCXCL1 to GAG in an antibody concentration-dependent manner
